Measurements: patent publication US20230340111A1 (published 2023)
Where a chain is given by its changes, count along the chain named. In names and notes the source's numbering stands.

B1: 131I-labeled untagged A1-N64Q (VHH)
VHH: DVQLVESGGGLVQPGGSLRLSCAASESIFSRNHMSWYRQAPGKQRELAAIITSDGQTNYPDSVKGRFTISRDNAKNTVYLQMNSLKPEDTAVYYCNTFGRSVAGFYDYWGQGTQVTVSS
modifications: [131I]SGMIB conjugated to lysine side-chain amine groups
B2: 131I-labeled untagged A1-N64E (VHH)
VHH: B1 VHH with Q56E
modifications: [131I]SGMIB conjugated to lysine side-chain amine groups
B3: 131I-labeled untagged A1-D59E (VHH)
VHH: B1 VHH with D54E, Q56N
modifications: [131I]SGMIB conjugated to lysine side-chain amine groups
B4: 131I-labeled untagged A1-N64S (VHH)
VHH: B1 VHH with Q56S
modifications: [131I]SGMIB conjugated to lysine side-chain amine groups
B5: 131I-labeled untagged A2-E90Q (VHH)
VHH: DVQLVESGGGLVQAGGSLRLSCAADEMKFSNYDLAWYRRAPGKQRELAAIITSGGSTNYPDSVKGRFTISRDNAKNTVYLQMNSLKPEDTAVYYCNALRPWPQFSDYWGQGTQVTVSS
modifications: [131I]SGMIB conjugated to lysine side-chain amine groups
B6: 131I-labeled untagged A2-K29Q-E90Q (VHH)
VHH: B5 VHH with K28Q
modifications: [131I]SGMIB conjugated to lysine side-chain amine groups
B7: 131I-labeled untagged A2-M28T-E90Q (VHH)
VHH: B5 VHH with M27T
modifications: [131I]SGMIB conjugated to lysine side-chain amine groups
B8: 131I-labeled untagged VHH A2 (VHH)
VHH: B5 VHH with Q81E
modifications: [131I]SGMIB conjugated to lysine side-chain amine groups
B9: 131I-labeled untagged A2-M28A-E90Q (VHH)
VHH: B5 VHH with M27A
modifications: [131I]SGMIB conjugated to lysine side-chain amine groups
B10: 131I-labeled untagged A2-K29R-E90Q (VHH)
VHH: B5 VHH with K28R
modifications: [131I]SGMIB conjugated to lysine side-chain amine groups
B11: untagged N64E variant of VHH A1 (VHH)
VHH: B1 VHH with Q56E
notes: also called A1-N64E
B12: untagged D59E variant of VHH A1 (VHH)
VHH: B1 VHH with D54E, Q56N
notes: also called A1-D59E
B13: untagged N64S variant of VHH A1 (VHH)
VHH: B1 VHH with Q56S
notes: also called A1-N64S
B14: untagged N64Q variant of VHH A1 (VHH)
VHH: B1 VHH
notes: also called A1-N64Q
B15: untagged E90Q variant of VHH A2 (VHH)
VHH: B5 VHH
notes: also called A2-E90Q
B16: untagged K29Q-E90Q variant of VHH A2 (VHH)
VHH: B5 VHH with K28Q
notes: also called A2-K29Q-E90Q
B17: untagged K29R-E90Q variant of VHH A2 (VHH)
VHH: B5 VHH with K28R
notes: also called A2-K29R-E90Q
B18: untagged M28A-E90Q variant of VHH A2 (VHH)
VHH: B5 VHH with M27A
notes: also called A2-M28A-E90Q
B19: untagged M28T-E90Q variant of VHH A2 (VHH)
VHH: B5 VHH with M27T
notes: also called A2-M28T-E90Q; A2-M28TE90Q
B20: 99mTc-labeled His6-tagged VHH A5 (VHH)
VHH: DVQLVESGGGLVQAGGSLRLSCGVSGNIFSMNLMGWYRQPPGKEREWVALITKDGSTNYEDSVKGRFTISRDNAKNTVSLQMNSLKPEDTAVYYCNAQDGSGWIRAWGWDWGQGTQVTVSS
modifications: [99mTc(H2O)3(CO)3] at the His6-tail
notes: also called 99mTc-A5
B21: 99mTc-labeled His6-tagged VHH A3 (VHH)
VHH: B20 VHH with I28M, E46D, L50V, E60A, A97V
modifications: [99mTc(H2O)3(CO)3] at the His6-tail
notes: also called 99mTc-A3
B22: 99mTc-labeled His6-tagged VHH A1 (VHH)
VHH: B1 VHH with Q56N
modifications: [99mTc(H2O)3(CO)3] at the His6-tail
notes: also called 99mTc-A1; 99mTc-VHH A1
B23: 99mTc-labeled His6-tagged VHH A4 (VHH)
VHH: DVQLVESGGGLARAGGSLRLSCAASGRAFSSTYAMGWFRQAPGKEREFVADINWSEGSPMYIDSVKDRFTISRDNARNSLYLQMNSLKSEDTAVYYCAARRFGQGYEYWGQGTQVTVSS
modifications: [99mTc(H2O)3(CO)3] at the His6-tail
notes: also called 99mTc-A4
B24: 99mTc-labeled His6-tagged VHH A2 (VHH)
VHH: B5 VHH with Q81E
modifications: [99mTc(H2O)3(CO)3] at the His6-tail
notes: also called 99mTc-A2; 99mTc-VHH A2

target: T1, human FOLR1 expressed on SKOV-3 ovarian carcinoma cells (human, UniProt P15328 25-234); assay: saturation binding of 131I-labelled untagged VHH on SKOV-3 cells
T1 construct: Naturally expressed receptor on SKOV-3 cells; also called human FOLR1pos SKOV-3 cancer cells; human FOLR1-expressing cell line SKOV-3
Description: In a first part, their in vitro behaviour was assessed by means of investigating their cellular binding and retention over time. The binding potential of the resulting radioconjugates was assessed to confirm that this was not affected by the introduction of ¹³¹I-SGMIB into the amino acid sequence of the different VHHs. To this, human FOLR1^pos SKOV-3 cancer cells were incubated with serial dilutions with concentrations ranging from 0 to 300 nM of the different ¹³¹I-labelled, His₆ tagged VHHs. A 100-fold excess of the corresponding unlabeled VHH was added in parallel to saturate the human FOLR1 receptors expressed on cancer cells, to assess non-specific binding.
A1 and A2 parental untagged VHH’s and derivatives were radiolabeled with theranostic isotope ¹³¹I, as described in example 3, and subjected to saturation binding studies as described in example 6.

T1 sequence (P15328 25-234 limits assumed): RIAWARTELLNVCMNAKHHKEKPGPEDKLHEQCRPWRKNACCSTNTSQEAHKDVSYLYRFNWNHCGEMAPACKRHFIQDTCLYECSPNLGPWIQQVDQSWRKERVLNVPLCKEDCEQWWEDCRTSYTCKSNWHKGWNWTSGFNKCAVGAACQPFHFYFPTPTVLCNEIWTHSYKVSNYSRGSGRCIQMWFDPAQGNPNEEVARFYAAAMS

B1 and B2 are within 1.5-fold of each other in EC50: 2.3 nM for the first, 2.5 nM for the second.

Compared with B3, B4 is 2.3-fold lower in EC50: 2.1 nM for the first, 0.9 nM for the second. The second is the more potent here.

First: B5
Second: B6
The EC50 of the first is 1.8-fold lower: 2.9 nM for the first, 5.1 nM for the second.

First: B7
Second: B8
The EC50 of the first is 2-fold higher: 4.8 nM for the first, 2.4 nM for the second.

B9 and B10 are within 1.5-fold of each other in EC50: 4.1 nM for the first, 3.6 nM for the second.

target: T2, human FOLR1 recombinant protein (extracellular domain of human folate receptor alpha) (human, UniProt P15328 25-233); assay: SPR (Biacore T200), single cycle kinetics, human FOLR1 immobilized on CM5, untagged VHH as analyte, 1:1 fit
T2 construct: Bought recombinant protein (Sino Biological); also called hFOLR1; FR-alpha
Description: The antigen-binding kinetic parameters of untagged, purified VHH A1 and A2 variants were determined by surface plasmon resonance on immobilized human FOLR1 recombinant protein with a Biacore T200 instrument (GE Healthcare). The human FOLR1 recombinant protein (Sino Biological) was immobilized in 10 mM sodium acetate, pH 5.5 on a CM5 chip (GE Healthcare) via amine coupling chemistry to 250 RU. VHHs were analyzed using single cycle kinetics with a threefold serial dilution in HBS (5 nM-0.062 nM) and an analyte flow rate of 40 µl/min. The association phase took 5× 450 s and the dissociation phase 900 s. Regeneration was done by a single injection of 50 mM glycine-HCl, pH 2.5, 2 M MgCl₂ for 30 s at 30 µl/min, followed by 120 s stabilization. Binding curves were fitted using a ‘1:1 (antigen:analyte)’ binding model in Biacore T200 evaluation software.

T2 sequence (P15328 25-233): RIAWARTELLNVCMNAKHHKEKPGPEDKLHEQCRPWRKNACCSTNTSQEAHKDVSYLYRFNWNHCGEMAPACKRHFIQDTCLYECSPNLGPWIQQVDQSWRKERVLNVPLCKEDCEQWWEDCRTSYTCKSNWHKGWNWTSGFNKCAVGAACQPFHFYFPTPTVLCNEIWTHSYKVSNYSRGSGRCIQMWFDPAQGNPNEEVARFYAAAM

B11 and B12 are within 1.5-fold of each other in Kd: 0.092 nM for the first, 0.083 nM for the second.

First: B13
Second: B14
The Kd of the first is 1.6-fold higher: 0.057 nM for the first, 0.036 nM for the second.

B15 and B16 are within 1.5-fold of each other in Kd: 0.25 nM for the first, 0.27 nM for the second.

Going from B17 to B18, the Kd rises from 0.29 nM to 0.81 nM (2.8-fold). The first binds more tightly here.

B19 was tested, and the Kd was 0.56 nM.

B11 and B12 are within 1.5-fold of each other in koff: 0.00017 s⁻¹ for the first, 0.00019 s⁻¹ for the second.

Compared with B13, B14 is 1.7-fold lower in koff: 0.00014 s⁻¹ for the first, 8.2e-05 s⁻¹ for the second.

B15 and B16 are within 1.5-fold of each other in koff: 0.0006 s⁻¹ for the first, 0.00048 s⁻¹ for the second.

First: B17
Second: B18
The koff of the first is 3-fold lower: 0.00053 s⁻¹ for the first, 0.0016 s⁻¹ for the second.

B19 was tested, and the koff was 0.0013 s⁻¹.

B11 and B12 are within 1.5-fold of each other in kon: 1.8e+06 M⁻¹ s⁻¹ for the first, 2.3e+06 M⁻¹ s⁻¹ for the second.

B13 and B14 are within 1.5-fold of each other in kon: 2.5e+06 M⁻¹ s⁻¹ for the first, 2.3e+06 M⁻¹ s⁻¹ for the second.

B15 and B16 are within 1.5-fold of each other in kon: 2.3e+06 M⁻¹ s⁻¹ for the first, 1.8e+06 M⁻¹ s⁻¹ for the second.

B17 and B18 are within 1.5-fold of each other in kon: 1.9e+06 M⁻¹ s⁻¹ for the first, 2e+06 M⁻¹ s⁻¹ for the second.

With B19 the kon was 2.3e+06 M⁻¹ s⁻¹.

target: T1, human FOLR1 expressed on SKOV-3 ovarian …; assay: saturation binding of 99mTc-labelled His6-tagged VHH on SKOV-3 cells (0-300 nM); non-specific binding by 100-fold unlabelled VHH
Description: After quality control (> 95%), human FOLR1^pos SKOV-3 cancer cells were incubated with serial dilutions with concentrations ranging from 0 to 300 nM of the different ^99mTc-labelled VHHs. A 100-fold excess of the corresponding unlabeled VHH was added in parallel to saturate the human FOLR1 receptors expressed on cancer cells, to assess non-specific binding.

Going from B20 to B21, the EC50 falls from 28.6 nM to 3.3 nM (8.7-fold).

Going from B22 to B23, the EC50 rises from 1 nM to 3.8 nM (3.8-fold). The first is the more potent here.

For B24, the EC50 was 1.1 nM.

target: T1, human FOLR1 expressed on SKOV-3 ovarian …; assay: cellular retention on SKOV-3 cells: 10 nM 131I-VHH 1 h at 4 C, then up to 24 h at 37 C; membrane-bound plus internalized fraction
Description: The in vitro cellular retention of the different His₆- and untagged ¹³¹I-labeled VHHs was assessed on the same cancer cells. In this particular case, human FOLR1^pos SKOV-3 cancer cells were incubated with 10 nM ¹³¹I-labelled VHHs for 1h at 4° C., after which the unbound fraction was collected. A 100-fold excess of the corresponding unlabeled VHH to assess non-specific binding. Next, the cells were incubated with fresh medium up to 24 h at 37° C., after which the dissociated fraction was collected. Afterwards, the cells were washed with 0.05 M glycine pH 2.8 to collect the membrane-bound fraction. Finally, cells were solubilized with 1 M NaOH at room temperature to collect the internalized fraction. The sum of the membrane-bound and internalized fractions corresponds to the total cell-associated fraction.

In the case of B8, the “cell-associated fraction of initial bound activity after 24 h” value is reported as ~60%.
